Data from US20210395340A1 (KINDRED BIOSCIENCES, published 2021).

T1: canine IL4 (Sino Biological Inc, Cat #70021-DNAE-5) (canine, UniProt O77762 25-132, limits assumed)
T1 sequence (looked up): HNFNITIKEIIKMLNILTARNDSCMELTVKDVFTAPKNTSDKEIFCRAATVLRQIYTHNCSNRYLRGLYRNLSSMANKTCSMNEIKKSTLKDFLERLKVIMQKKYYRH

T2: canine IL13 with C-terminal poly-His tag (produced in 293 cells) (canine, UniProt Q9N0W9 19-131)
T2 sequence: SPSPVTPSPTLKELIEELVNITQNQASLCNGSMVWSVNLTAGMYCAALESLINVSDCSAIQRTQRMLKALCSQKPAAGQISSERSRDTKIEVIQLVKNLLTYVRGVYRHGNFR

B1: canine IL4RECD-IL13RECD-IgGB Fc (Fc fusion)
chain: SGSVKVLHEPSCFSDYISTSVCQWKMDHPTNCSAELRLSYQLDFMGSENHTCVPENREDSVCVCSMPIDDAVEADVYQLDLWAGQQLLWSGSFQPSKHVKPRTPGNLTVHPNISHTWLLMWTNPYPTENHLHSELTYMVNVSNDNDPEDFKVYNVTYMGPTLRLAASTLKSGASYSARVRAWAQTYNSTWSDWSPSTTWLNYYEPGGGSGTETQPPVTNLSVSVENLCTVIWTWDPPEGASPNCTLRYFSHFDNKQDKKIAPETHRSKEVPLNERICLQVGSQCSTNESDNPSILVEKCTPPPEGDPESAVTELQCVWHNLSYMKCTWLPGRNTSPDTNYTLYYWHSSLGKILQCEDIYREGQHIGCSFALTNLKDSSFEQHSVQIVVKDNAGKIRPSFNIVPLTSHVKPDPPHIKRLFFQNGNLYVQWKNPQNFYSRCLSYQVEVNNSQTETNDIFYVEEAKCQNSEFEGNLEGTICFMVPGVLPDTLNTVRIRVRTNKLCYEDDKLWSNWSQAMSIGENTDPTPKRENGRVPRPPDCPKCPAPEMLGGPSVFIFPPKPKDTLLIARTPEVTCVVVDLDPEDPEVQISWFVDGKQMQTAKTQPREEQFNGTYRVVSVLPIGHQDWLKGKQFTCKVNNKALPSPIERTISKARGQAHQPSVYVLPPSREELSKNTVSLTCLIKDFFPPDIDVEWQSNGQQEPESKYRTTPPQLDEDGSYFLYSKLSVDKSRWQRGDTFICAVMHEALHNHYTQESLSHSPGK
notes: The IL4R ECD precedes the IL13R ECD, followed by canine IgG-B Fc; also called canine IL4RECD-IL13RECD-Fc; SINK
B2: canine IL13RECD-IL4RECD-IgGB Fc (Fc fusion)
chain: TETQPPVTNLSVSVENLCTVIWTWDPPEGASPNCTLRYFSHFDNKQDKKIAPETHRSKEVPLNERICLQVGSQCSTNESDNPSILVEKCTPPPEGDPESAVTELQCVWHNLSYMKCTWLPGRNTSPDTNYTLYYWHSSLGKILQCEDIYREGQHIGCSFALTNLKDSSFEQHSVQIVVKDNAGKIRPSFNIVPLTSHVKPDPPHIKRLFFQNGNLYVQWKNPQNFYSRCLSYQVEVNNSQTETNDIFYVEEAKCQNSEFEGNLEGTICFMVPGVLPDTLNTVRIRVRTNKLCYEDDKLWSNWSQAMSIGENTDPTGGGSGSGSVKVLHEPSCFSDYISTSVCQWKMDHPTNCSAELRLSYQLDFMGSENHTCVPENREDSVCVCSMPIDDAVEADVYQLDLWAGQQLLWSGSFQPSKHVKPRTPGNLTVHPNISHTWLLMWTNPYPTENHLHSELTYMVNVSNDNDPEDFKVYNVTYMGPTLRLAASTLKSGASYSARVRAWAQTYNSTWSDWSPSTTWLNYYEPKRENGRVPRPPDCPKCPAPEMLGGPSVFIFPPKPKDTLLIARTPEVTCVVVDLDPEDPEVQISWFVDGKQMQTAKTQPREEQFNGTYRVVSVLPIGHQDWLKGKQFTCKVNNKALPSPIERTISKARGQAHQPSVYVLPPSREELSKNTVSLTCLIKDFFPPDIDVEWQSNGQQEPESKYRTTPPQLDEDGSYFLYSKLSVDKSRWQRGDTFICAVMHEALHNHYTQESLSHSPGK
notes: also called canine IL13RECD-IL4RECD-Fc; IL13R ECD/IL4R ECD contiguous polypeptide

Tests used:
[1] = biological target: T1, canine IL4 (Sino Biological Inc, Cat …); assay: cell-based or functional assay
[2] = biological target: T2, canine IL13 with C-terminal poly-His …; assay: BLI (Octet)

Binder	TF1 cell proliferation assay (CellTiter-Glo luminescence), IC50 [1] [nM]	binding result [2]
B1	2	binds
B2		binds
